{"source": "patent US20150224177A1", "about": "(priority 2014, published 2015)", "key": {"B. pseudomallei isolates": {"test_system": "B. pseudomallei isolates", "assay": "microbe, parasite or virus in culture", "assay_type": "cell-based, Burkholderia pseudomallei"}, "Burkholderia mallei": {"test_system": "Burkholderia mallei", "assay": "microbe, parasite or virus in culture", "assay_type": "cell-based"}, "[1]": {"test_system": "B. pseudomallei strains 1026b and MSHR 305", "assay_type": "cell-based, Burkholderia pseudomallei"}, "Bacillus anthracis": {"test_system": "Bacillus anthracis", "assay_type": "cell-based"}, "Yersinia pestis": {"test_system": "Yersinia pestis", "assay": "microbe, parasite or virus in culture", "assay_type": "cell-based"}}, "note": "Entries after “also recorded” stand apart in the source; their conditions may differ.", "data": [{"molecule": "bovine lactoferrin (protein, UniProt P24627 20-708, looked up) Lactotransferrin: APRKNVRWCTISQPEWFKCRRWQWRMKKLGAPSITCVRRAFALECIRAIAEKKADAVTLDGGMVFEAGRDPYKLRPVAAEIYGTKESPQTHYYAVAVVKKGSNFQLDQLQGRKSCHTGLGRSAGWIIPMGILRPYLSWTESLEPLQGAVAKFFSASCVPCIDRQAYPNLCQLCKGEGENQCACSSREPYFGYSGAFKCLQDGAGDVAFVKETTVFENLPEKADRDQYELLCLNNSRAPVDAFKECHLAQVPSHAVVARSVDGKEDLIWKLLSKAQEKFGKNKSRSFQLFGSPPGQRDLLFKDSALGFLRIPSKVDSALYLGSRYLTTLKNLRETAEEVKARYTRVVWCAVGPEEQKKCQQWSQQSGQNVTCATASTTDDCIVLVLKGEADALNLDGGYIYTAGKCGLVPVLAENRKSSKHSSLDCVLRPTEGYLAVAVVKKANEGLTWNSLKDKKSCHTAVDRTAGWNIPMGLIVNQTGSCAFDEFFSQSCAPGADPKSRLCALCAGDDQGLDKCVPNSKEKYYGYTGAFRCLAEDVGDVAFVKNDTVWENTNGESTADWAKNLNREDFRLLCLDGTRKPVTEAQSCHLAVAPNHAVVSRSDRAAHVKQVLLHQQALFGKNGKNCPDKFCLFKSETKNLLFNDNTECLAKLGGRPTYEEYLGTEYVTAIANLKKCSTSPLLEACAFLTR", "values": [{"measurement": "Minimal Inhibitory Concentration", "setting": "B. pseudomallei isolates", "value": ">91,429 μg/mL"}, {"measurement": "concentration of bLF at which all isolates were capable of growth (highest concentration tested)", "setting": "B. pseudomallei isolates", "value": "> 91.429", "unit": "mg/mL"}, {"measurement": "inhibition of growth, overall result in words", "setting": "B. pseudomallei isolates", "value": "not directly inhibited"}, {"measurement": "Minimal Inhibitory Concentration", "setting": "Burkholderia mallei", "value": "≧91,400 μg/mL"}, {"measurement": "inhibition of growth, result in words", "setting": "Burkholderia mallei", "value": "generally did not inhibit B. mallei growth by itself"}, {"measurement": "bacterial growth by T24h compared with positive/untreated control", "setting": "[1]", "value": "grew to match or exceed the concentration of the positive control; also recorded: replicate to the same levels as those in the untreated controls"}, {"measurement": "bactericidal effect, overall result in words", "setting": "[1]", "value": "much more minor direct bactericidal effect"}, {"measurement": "initial reduction in bacterial concentration", "setting": "[1]", "value": "1 to 2", "unit": "log10"}, {"measurement": "kill curve: evolution of microbial load during time", "setting": "[1]", "value": "impact can be seen at T6h (standalone); also recorded: impact can be seen at T4h (standalone)"}, {"measurement": "Minimal Inhibitory Concentration", "setting": "Bacillus anthracis", "value": ">91,400 μg/mL"}, {"measurement": "inhibition of growth, result in words", "setting": "Bacillus anthracis", "value": "no observed inhibition of growth"}, {"measurement": "Minimal Inhibitory Concentration", "setting": "Yersinia pestis", "value": ">91,400 μg/mL"}, {"measurement": "inhibition of growth, result in words", "setting": "Yersinia pestis", "value": "did not inhibit Y. pestis growth at any concentration by itself"}]}]}
